Key:
[1] = biological target: T1, Human CD3ε&CD3δ heterodimeric Fc Chimera (ACRO Biosystems CDD-H52W0) (human, UniProt P07766 22-126, Disulfide-linked heterodimer through the Fc parts that are left off.); assay: BLI (Octet) scouting; rhCD3ε/δ-Fc captured on AHC sensor; analyte 2000 nM; 1:1 local fit
T1 construct: Disulfide-linked heterodimer, bought; also called rhCD3ε/δ-Fc; rhCD3ε/CD3δ-Fc

[2] = biological target: T2, rhBCMA-Fc Chimera (R&D Systems 193-BC-050) (human, Disulfide-linked homodimer (the 25th table, row 5); one copy of the chain is given.); assay: BLI (Octet) scouting; rhBCMA-Fc captured on AHC sensor; analyte 100 nM; 1:1 local fit
T2 construct: Disulfide-linked dimer, bought; also called immobilized BCMA

[3] = biological target: T1, Human CD3ε&CD3δ heterodimeric Fc …; assay: BLI full kinetics; rhCD3ε/δ-Fc captured on AHC sensor; analyte 15.6-125 nM; monovalent (affinity)
[4] = biological target: T2, rhBCMA-Fc Chimera (R&D Systems …); assay: BLI full kinetics; rhBCMA-Fc captured on AHC sensor; analyte 1.56-50 nM; bivalent (avidity)
CD3 on (CD3+) T cells = biological target: T3, CD3 on (CD3+) T cells (human, UniProt P07766 23-207; P09693 23-182; P04234 22-171; P20963 22-164); assay: flow cytometry; 10 µg/mL scFv on 50,000 CD3+ T cells; anti-FLAG FITC detection
T3 construct: whole, on cells; also called CD3 protein multi-subunit complex
T3 sequence (P07766 23-207, form in doubt, chain 1 of 4): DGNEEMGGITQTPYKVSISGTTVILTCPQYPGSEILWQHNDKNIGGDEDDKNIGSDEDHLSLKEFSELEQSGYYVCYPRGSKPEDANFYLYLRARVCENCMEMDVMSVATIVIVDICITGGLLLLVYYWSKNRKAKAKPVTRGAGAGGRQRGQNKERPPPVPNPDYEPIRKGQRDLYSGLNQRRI
T3 sequence (P09693 23-182, form in doubt, chain 2 of 4): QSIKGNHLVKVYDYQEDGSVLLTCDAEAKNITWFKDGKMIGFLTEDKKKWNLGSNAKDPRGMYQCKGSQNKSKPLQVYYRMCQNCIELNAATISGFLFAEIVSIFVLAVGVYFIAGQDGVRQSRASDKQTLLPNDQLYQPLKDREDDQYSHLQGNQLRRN
T3 sequence (P04234 22-171, form in doubt, chain 3 of 4): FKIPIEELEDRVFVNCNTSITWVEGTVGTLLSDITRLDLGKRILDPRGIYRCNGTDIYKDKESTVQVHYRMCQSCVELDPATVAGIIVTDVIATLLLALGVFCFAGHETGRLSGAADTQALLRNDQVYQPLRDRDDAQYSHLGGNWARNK
T3 sequence (P20963 22-164, form in doubt, chain 4 of 4): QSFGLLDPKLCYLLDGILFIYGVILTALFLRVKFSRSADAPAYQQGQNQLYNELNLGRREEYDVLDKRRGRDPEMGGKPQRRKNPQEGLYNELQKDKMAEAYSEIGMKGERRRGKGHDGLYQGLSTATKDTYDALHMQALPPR

T2 sequence (chain, as listed by the source mutant limits assumed): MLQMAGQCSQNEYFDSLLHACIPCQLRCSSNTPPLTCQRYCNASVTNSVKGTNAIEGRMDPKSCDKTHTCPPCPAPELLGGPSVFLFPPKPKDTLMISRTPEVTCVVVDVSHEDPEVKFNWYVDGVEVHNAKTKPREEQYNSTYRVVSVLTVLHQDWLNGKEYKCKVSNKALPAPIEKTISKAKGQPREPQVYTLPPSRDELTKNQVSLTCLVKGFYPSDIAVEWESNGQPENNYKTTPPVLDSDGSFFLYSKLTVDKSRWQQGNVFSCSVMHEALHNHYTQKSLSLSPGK
T1 sequence (P07766 22-126 limits assumed, stated change not applied, chain 1 of 2): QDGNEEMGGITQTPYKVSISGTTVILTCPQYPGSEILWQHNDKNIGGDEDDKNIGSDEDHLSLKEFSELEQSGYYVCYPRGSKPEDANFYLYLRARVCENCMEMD
T1 sequence (delta, as listed by the source mutant limits assumed, chain 2 of 2): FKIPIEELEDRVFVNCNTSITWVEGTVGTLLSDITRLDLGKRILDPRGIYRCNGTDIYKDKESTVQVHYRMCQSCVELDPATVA

B1: bispecific antibody of SEQ ID NO: 138 (with a C-terminal Myc-Flag tag of SEQ ID NO: 141) (bispecific antibody)
chain: DIVLTQSPASLAVSPGQRATISCRASESVSFLGINLIHWYQQKPGQPPKLLIYLASNLETGVPARFSGSGSGTDFTLTISSVEPEDTANYYCLQSRTLPRTFGQGTKVEIKGSTSGSGKPGSGEGSTKGQIQLVQSGPELKKPGGSVKISCKASGYTFTSYSINWVRQAPGKGLEWVGWINTETREPAYAQGFTGRFTFSADTSKSMAYLQINSLRAEDTAVYYCALDYLYSLDFWGQGTLVTVSSGGGGSQVQLVQSGAEVKKPGASVKVSCKASGYTFTRYTMHWVRQAPGQGLEWIGYINPSKGYTNYNQKFKGRVTMTADKSTSTAYMELSSLRSEDTAVYYCARYYDDHYSLDYWGQGTLVTVSSGGGGSGGGGSGGGGSGGGGSEIVMTQSPATLSLSPGERVTLSCRASSSVSYMNWYQQKSGTSPKRWIYDTSKVASGVPYRFSGSGSGTDFTLTISSLQAEDEATYYCQQWSSNPLTFGQGTKLEIKSSGGSGGSGGSGGSGGSGGSGGSGGSGGSGSDIVLTQSPASLAVSPGQRATISCRASESVSFLGINLIHWYQQKPGQPPKLLIYLASNLETGVPARFSGSGSGTDFTLTISSVEPEDTANYYCLQSRTLPRTFGQGTKVEIKGSTSGSGKPGSGEGSTKGQIQLVQSGPELKKPGGSVKISCKASGYTFTSYSINWVRQAPGKGLEWVGWINTETREPAYAQGFTGRFTFSADTSKSMAYLQINSLRAEDTAVYYCALDYLYSLDFWGQGTLVTVSSGGSLEQKLISEEDLAANDILDYKDDDDKV
notes: Single chain: anti-BCMA scFv, anti-CD3 scFv, anti-BCMA scFv; also called DC10xP15-MycDDK; DC10xP15
How did the Kd [1] turn out when B1 was run?
The Kd was 9.76 nM.

What about the Kd [2] of the same binder?
Its Kd is 0.116 nM.

And the Kd [3]?
The Kd was 3.02 nM.

And the koff [3]?
The koff was 0.00199 s⁻¹.

And the kon [3]?
The kon was 660000 M⁻¹ s⁻¹.

And the Kd [4]?
The Kd was less than 0.001 nM.

What about the koff [4] of the same binder?
Its koff is less than 1e-07 s⁻¹.

What about the kon [4] of the same binder?
The kon was 226000 M⁻¹ s⁻¹.

B2: Vulcanodon-C1 anti-CD3 scFv (SEQ ID NO: 7), FLAG and His-tagged version (scFv)
scFv: QVQLQQSGAELARPGASVKMSCKTSGYTFTGYYMHWVKQRPGQGLEWIGYINPSRGYTNYNQKFKDKATLTTDKSSSTAYMQLSSLTSEDSAVYYCARYYDDHYSLDYWGQGTTLTVSSGGGGSGGGGSGGGGSGGGGSQIVLTQSPAIMSASPGEKVTMTCRASQSISSYLNWYQQKSGTSPKRWIYDTSKVASGVPYRFSGSGSGTSYSLTISSMEAEDAATYYCQQWSSNPLTFGAGTKLELK
notes: also called Var CDR1; not shown: FLAG and His tags
With B2 as the binder, how does the “CD3 Binding (increase in MFI)” value (CD3 on (CD3+) T cells) read?
The value was roughly 0 MFI.

B3: Vulcanodon-C2 anti-CD3 scFv (SEQ ID NO: 8), FLAG and His-tagged version (scFv)
scFv: QVQLQQSGAELARPGASVKMSCKTSGYTFTRYTMHWVKQRPGQGLEWMGIINPSGGSTSYAQKFKDKATLTTDKSSSTAYMQLSSLTSEDSAVYYCARYYDDHYSLDYWGQGTTLTVSSGGGGSGGGGSGGGGSGGGGSQIVLTQSPAIMSASPGEKVTMTCRASSSVSYMNWYQQKSGQAPRLLIYGASTRATGIPYRFSGSGSGTSYSLTISSMEAEDAATYYCQQWSSNPLTFGAGTKLELK
notes: also called Var CDR2; not shown: FLAG and His tags
For B3, which “CD3 Binding (increase in MFI)” value (CD3 on (CD3+) T cells) is on record?
The value was roughly 0 MFI.

B4: Vulcanodon-3 anti-CD3 scFv (SEQ ID NO: 4), FLAG and His-tagged version (scFv)
scFv: QVQLVQSGAEVKKLGASVKVSCKASGYTFTRYTMHWVKQAPGQGLEWIGYINPSRGYTNYNQKFQGRVTMTRDTSISTAYMELSRLRSDDTAVYYCARYYDDHYSLDYWGQGTLVTVSSGGGGSGGGGSGGGGSGGGGSDIQMTQSPSSLSASVGDRVTITCRASSSVSYMNWYQQKSGTSPKRWIYDTSKVASGVPYRFSGSGSGTDFTLTISSLQPEDFATYYCQQWSSNPLTFGAGTKLEIK
notes: also called Var 3; not shown: FLAG and His tags
With B4 as the binder, how does the “CD3 Binding (increase in MFI)” value (CD3 on (CD3+) T cells) read?
Its value is 24 MFI.

B5: Vulcanodon-1 anti-CD3 scFv (SEQ ID NO: 2), FLAG and His-tagged version (scFv)
scFv: QVQLVQSGAEVKKPGASVKVSCKASGYTFTRYTMHWVRQAPGQGLEWIGYINPSKGYTNYNQKFKGRVTMTADKSTSTAYMELSSLRSEDTAVYYCARYYDDHYSLDYWGQGTLVTVSSGGGGSGGGGSGGGGSGGGGSEIVMTQSPATLSLSPGERVTLSCRASSSVSYMNWYQQKSGTSPKRWIYDTSKVASGVPYRFSGSGSGTDFTLTISSLQAEDEATYYCQQWSSNPLTFGQGTKLEIK
notes: also called Var 1; not shown: FLAG and His tags
B5 was tested. Which “CD3 Binding (increase in MFI)” value (CD3 on (CD3+) T cells) did it give?
The value was 20 MFI.

B6: Vulcanodon-2 anti-CD3 scFv (SEQ ID NO: 3), FLAG and His-tagged version (scFv)
scFv: QVQLVQSGAEVKKPGASVKVSCKASGYTFTRYTMHWVRQAPGQGLEWIGYINPSRGYTNYNQKFKGRVTMTADKSTSTAYMELSSLRSEDTAVYYCARYYDDHYSLDYWGQGTTVTVSSGGGGSGGGGSGGGGSGGGGSEIVMTQSPATLSLSPGERVTLSCRASSSVSYMNWYQQKSGTSPKRWIYDTSKVASGVPYRFSGSGSGTDFTLTISSLQAEDEATYYCQQWSSNPLTFGAGTKLEIK
notes: also called Var 2; not shown: FLAG and His tags
Which “CD3 Binding (increase in MFI)” value (CD3 on (CD3+) T cells) does the source give for B6 here?
The value was 24 MFI.

B7: Vulcanodon-4 anti-CD3 scFv (SEQ ID NO: 5), FLAG and His-tagged version (scFv)
scFv: QVQLVQSGAEVKKPGASVKVSCKASGYTFTRYTMHWVKQRPGQGLEWIGYINPSKGYTNYNQKFKGRVTMTADKSTSTAYMELSSLRSEDTAVYYCARYYDDHYSLDYWGQGTLVTVSSGGGGSGGGGSGGGGSGGGGSQIVLTQSPAIMSASPGEKVTMTCRASSSVSYMNWYQQKSGTSPKRWIYDTSKVASGVPYRFSGSGSGTDFTLTISSLQAEDEATYYCQQWSSNPLTFGQGTKLEIK
notes: also called Var 4; not shown: FLAG and His tags
How did the “CD3 Binding (increase in MFI)” value (CD3 on (CD3+) T cells) turn out when B7 was run?
Its value is 27 MFI.

From patent US20240344030A1 (CARTESIAN THERAPEUTICS, published 2024)
